Measured values reported in publication PMC7294595.

Target: flu-pTyr (gp130-derived phosphopeptide) (Homo sapiens)

B1: STAT3 127-711, P40763 (protein)
chain: GQANHPTAAVVTEKQQMLEQHLQDVRKRVQDLEQKMKVVENLQDDFDFNYKTLKSQGDMQDLNGNNQSVTRQKMQQLEQMLTALDQMRRSIVSELAGLLSAMEYVQKTLTDEELADWKRRQQIACIGGPPNICLDRLENWITSLAESQLQTRQQIKKLEELQQKVSYKGDPIVQHRPMLEERIVELFRNLMKSAFVVERQPCMPMHPDRPLVIKTGVQFTTKVRLLVKFPELNYQLKIKVCIDKDSGDVAALRGSRKFNILGTNTKVMNMEESNNGSLSAEFKHLTLREQRCGNGGRANCDASLIVTEELHLITFETEVYHQGLKIDLETHSLPVVVISNICQMPNAWASILWYNMLTNNPKNVNFFTKPPIGTWDQVAEVLSWQFSSTTKRGLSIEQLTTLAEKLLGPGVNYSGCQITWAKFCKENMAGKGFSFWVWLDNIIDLVKKYILALWNEGYIMGFISKERERAILSTKPPGTFLLRFSESSKEGGVTFTWVEKDISGKTQIQSVEPYTKQQLNNMSFAEIIMGYKIMDATNILVSPLVYLYPDIPKEEAFGKYCRPESQEHPEADPGSAAPYLKTKFI
Kd: 60 nM
